Measurements taken from the DeepSol protein solubility set.

Test: soluble on expression in E. coli; label from the status in PepcDB or PDB records

Sequence	soluble on expression in E. coli
MGHHHHHHSHMIRINEIKLPLDHEEGALLDAITKKLGIPAEKVISFNVFRRGYDARKKTNIHLIYTLDIIVEGDETALLAKFANDPHVRQTPDMEYKFVAKAPENLTERPIVIGFGPCGLFAGLVLAQMGFNPIIVERGKEVRERTKDTFGFWRKRTLNPESNVQFGEGGAGTFSDGKLYSQVKDPNFYGRKVITEFVEAGAPEEILYVSKPHIGTFKLVTMIEKMRATIIELGGEIRFSTRVDGLHMEDGQITGVTLSNGEEIKSRHVVLAVGHSARDTFEMLHERGVYMEAKPFSVGFRIEHKQSMIDEARFGPNAGHPILGAADYKLVHHCKNGRTVYSFCMCPGGTVVAATSEEGRVVTNGMSQYSRAERNANSAIVVGISPEVDYPGDPLAGIRFQRELESNAYKLGGENYDAPAQKIGDFLKGRDPSQLGDVEPSFTPGIKLTDLSKALPPFAVEAIREAIPAFDRKIKGFASEDGLLTGVETRTSSPVCIKRGKDFQSVNLKGFYPAGEGAGYAGGILSAGIDGIKVAEAVARDIVAAMENA	soluble
MGHHHHHHSHMKFRAKIVDGACLNHFTRISNMIAKLAKTCTLRISPDKLNFILCDKLANGGVSMWCELEQENFFNEFQMEGVSAENNEIYLELTSENLSRALKTAQNARALKIKLTNKHFPCLTVSVELLSMSSSSRIVTHDIPIKVIPRKLWKDLQEPVVP	not soluble
MGHHHHHHSHMKPIATVGESYQYPPVNWAALLSPLMRLNFGEEIQQLCLEIMVTQAQSSQNAAALLGLWVTPPLIHSLSLNTKRYLLISAPLWIKHISDEQILGFVENLMVAVFKAASPLGSPELCPSALHGLSQAMKLPSPAHHLWSLLSEATGKIFDLLPNKIRRKDLELYISIAKCLLEMTDDDANRIAQVTKSNIEKAAFVKLYLVSQGRFPLVNLTDMLSVAVQHREKEVLAWMILHSLYQARIVSHANTGVLKRMEWLLELMGYMKCCLPVNILSQYGS	not soluble
MGHHHHHHSHMLPVELVRHDVKKTDETSQVELMLQVDPDLFWFNGHFTGQPLLPGVAQLDWVMHYATTVLAQGWTFLSIENIKFQQPILPGKTLRLVLIWHAGKQSLTFSYSILEGDTERTASSGKIKLTPIMEDNPCQ	soluble
MGHHHHHHSHMLREPGDPEKLGEFLQKDNISVHYFCLILSSKLPQRGQSNRGSMDFCLKTSKRRQPGLLGRSALCARKRELLSTARRISASETSICLVAKKGVAFHNFLESTNHFVTNIAQHRTSNMGMWGRKAASYVVKTYPNRVLRTSRARVVVKPSTTASAYRNMPTHQQSISSNVHSVTIERVSSRNAENGNPYSRQEVVPHSVCYVRIPRNPQGLLLS	not soluble
MGHHHHHHSHMNGEIMDDSLKTSLITEEEDSTSEVLDEELKLQPFNSSEDSTNLVPLVVESSKPPEVDAPDKTPRIPDSEMLMDEGTSDEKGHMEEKLSLLPRKKAHLGSSDNVATMSNEERSDGGFPNSVIAEFSEEPVSENLSPNTTSSLEDQGEEGVSEPQETSTALPQSSLIEVELEDVPFSQNAGQKNQSEEQSEASSEQLDQFTQSAEKAVDSSSEEIEVEVPVVDRRNLRRKAKGHKGPAKKKAKLT	not soluble
MGHHHHHHSHMNILFLQWKVKLPPQKEVITSDELMAHLGNCLLSIKPQEKSEGLQLNFQQNVDDAMTVLPKLATGLDVNVRFTGVSDFEYTPECSVFDLLGIPLYHGWLVDPQSPEAVRAVGKLSYNQLVERIITCKHSSDTNLVTEGLIAEQFPETTAAQLTYHGLCELTAAAKEGELSVFFRNNHFSTMTKHKSHLYLLVTDQGFLQEEQVVWESLHNVDGDSCFCDSDFHLRHSLGKGPGAEGGSGSPEKQLQVDQDYLIALSLQQQQPRGPLGLTDLELAQQLQQEEYQQQQAAQPVRMRTRVLSLQGRGATSGRPAGERRQRPKHESDCILL	not soluble
MGHHHHHHSHMPESYWEKVSGKNIPSSLDLYPIIHNYLQEDDEILDIGCGSGKISLELASLGYSVTGIDINSEAIRLAETAARSPGLNQKTGGKAEFKVENASSLSFHDSSFDFAVMQAFLTSVPDPKERSRIIKEVFRVLKPGAYLYLVEFGQNWHLKLYRKRYLHDFPITKEEGSFLARDPETGETEFIAHHFTEKELVFLLTDCRFEIDYFRVKELETRTGNKILGFVIIAQKL	not soluble
MGHHHHHHSHMPVVIKEVPSSEAAEDVMVAAPLVCSGKVLEVQVVNQTSVHVDLGSQPKENEAEPSTASSVPLQDEQEPPAYDQAPEVTLQADIEVMSTVHISSVYNDVPVTEGVVYIEQLPEQIVIPFTDQVACLKENEQSKENEQSPRVSPKSVVEKTTSGMSKKSVESVKLAQLEENAKYSSVYMEAEATALLSDTSLKGQPEVPAQLLDAEGAIKIGSEKSLHLEVEITSIVSDNTGQEESGENSVPQEMEGKPVLSGEAAEAVHSGTSVKSSSGPFPPAPEGLTAPEIEPEGEATAE	not soluble
MGHHHHHHSHMQTLPVASALSSHRTGPPPISPSKRKFSMEPGDEDLDCDNDHVSKMSRIFNPHLNKTANGDCRRDPRERSRSPIERAVAPTMSLHGSHLYTSLPSLGLEQPLALTKNSLDASRPAGLSPTLTPGERQQNRPSVITCASAGARNCNLSHCPIAHSGCAAPGPASYRRPPSAATTCDPVVEEHFRRSLGKNYKEPEPAPNSVSITGSVDDHFAKALGDTWLQIKAAKDGASSSPESASRRGQPASPSAHMVSHSHSPSVVS	not soluble
MGHHHHHHSHMRRAALRLCALGKGQLTPGRGLTQGPQNPKKQGIFHIHEVRDKLREIVGASTNWRDHVKAMEERKLLHSFLAKSQDGLPPRRMKDSYIEVLLPLGSEPELREKYLTVQNTVRFGRILEDLDSLGVLICYMHNKIHSAKMSPLSIVTALVDKIDMCKKSLSPEQDIKFSGHVSWVGKTSMEVKMQMFQLHGDEFCPVLDATFVMVARDSENKG	not soluble
MGHHHHHHSHMSAVGTATPYLHHPGDSHSGRVSFLGAQLPPEVAAMARLLGDLDRSTFRKLLKFVVSSLQGEDCRDCCSVLGSAPTCRRAAGCLLAGMHTLLQQALRLPPTSLKPDTFRDPAPGALHPPRPGRGLGQRGIWEPAALLDSVAQQQGAWLPHVADFRWRVDVAISTSALARSLQPSVLMQLKLSDGSAYRFEVPTAKFQELRYSVALVLKEMADLEKRCERRLQD	soluble
MGHHHHHHSHMSFTTRSTFSTNYRSLGSVQAPSYGARPVSSAASVYAGAGGSGSRISVSRSTSFRGGMGSGGLATGIAGGLAGMGGIQNEKETMQSLNDRLASYLDRVRSLETENRRLESKIREHLEKKGPQVRDWSHYFKIIEDLRAQIFANTVDNARIVLQIDNARLAADDFRVKYETELAMRQSVENDIHGLRKVIDDTNITRLQLETEIEALKEELLFMKKNHEEEVKGLQAQIASSGLTVEVDAPKSQDLAKIMADIRAQYDELARKNREELDKYWSQQIEESTTVVTTQSAEVGAAETTLTELRRTVQSLEIDLDSMRNLKASLENSLREVEARYALQMEQLNGILLHLESELAQTRAEGQRQAQEYEALLNIKVKLEAEIATYRRLLEDGEDFNLG	soluble
MGHHHHHHSHMSNPRSLEEEKYDMSGARLALILCVTKAREGSEEDLDALEHMFRQLRFESTMKRDPTAEQFQEELEKFQQAIDSREDPVSCAFVVLMAHGREGFLKGEDGEMVKLENLFEALNNKNCQALRAKPKVYIIQACRGEQRDPGETVGGDEIVMVIKDSPQTIPTYTDALHVYSTVEGYIAYRHDQKGSCFIQTLVDVFTKRKGHILELLTEVTRRMAEAELVQEGKARKTNPEIQSTLRKRLYLQ	not soluble
MGHHHHHHSHMTNTNEAKPVNVLSAEVMITTAFQDADPMGVVYHGNYFRFFEKARHEMLEKIGYSYRDMMASGYVWPIIDTRVKYVKSIPYDHKIRVEATLTEWENRMRVDYVIYDAETNVRMTKAHTMQVAVSIETEEMCFVSPRIFTDKVEAYHNA	soluble
MGHHHHHHSHMTTPRSAPLYKLKSEDGQIFNVERGPMKFCAFINQKFIDHGVNDRNCERADPILVPFHSSIVQAVIEWLYHYQDNPLARRDSKIRYHDFSEWDKQFFNVESGVLFALLNASHALGVEDLMNMGCAAAAELIRGKSTEEIRKIYGIRSDEEQMEEALANGGEGTSAMTFTTDSD	soluble
MGHHHHHHSHMYADEVDKDRRTFKKNFSSARGSGIDGKWKRDMFQTANRSPKQNFTTKRRAQTNFVTKAGAAAAGLATRNISTASIRGRTAPAVVREIHTGPSTLIIKNLATTVTQEDLEELFEQYEPELVQLHYGPTGESNGCADLIVPHAQVAIIQKALEGVLLDGEPIEVLEANPPKQVSVFDRIKKVSRGNDFKAKNMRVVVKSKGGFQKRGARGDF	soluble
MGHHHHHHSHNEPEDSKLRFETYQLIWQQMKSENERLQEELNKNLFDNLIEFLQKSHSGFQKNSRDLGGQIKLREIPTAALVLGVNVTDHDLTFGSLTEALQNNVTPYVVSLQAKDCPDMKHFLQKLISQLMDCCVDIKSKEEESVHVTQRKTHYSMDSLSSWYMTVTQKTDP	not soluble
MGHNDELIRNKSAFASEMSDAAAIVQYADKNSLVVLDELARSTSTEEGIAITYAICEKVLKLHSYTFLATHFLDIAALANYSNAIDNYHFLPQIDDNSTKKHKLLRG	not soluble
MGIDPGTGSMDVLGFDDESNNVFLEESIPRDEVTRDPSLPLRIVEEASAKVGGLDAVVAPSGYGMPLKRASETAPGDICEATFIHSSDEVLGLRIVGLRRLMALFASSDLPAWFTPGVIHLPTVPAWRKVGRIDMGTADKLYTVAAALRTEVEYHGVEPEAARFIAVEAGMAYTAAVAVVGGKVVDGVGGTSGFHGFMGGGAMDGEAAYALAAVAPRFSKSLLFKGGAGWVAGVSSPVELEEKASEGGGLEALEMLGEGVVKSVATLLPSLRPEGGEVRVYVSGRLFSLGRLGSELRSRLRDFISSIGLTPRVLTIERLGSKTKEGASGAALVASGLAGGRYKWLVDHLELERSSGSIFDHLPVDEDLRRAVRLEFRSCSPLGEA	not soluble
MGIDVVMTNRRGEPPPELSTLPCFPFKWEQQGEQLPLAPAALEGVTHVLNGIPPDRQGEDAVALALLPQLEKLNLHWFGYLSTTGVYGDRQGGWVDETTPVNPQNLRSQHRVRIEQVFLNANLPTHIFRLPGIYGPGEGRNPIARILKGDVQLIDKPGHYFCRIHVADIVQTLERSLAQPTPQEIYNLSDDQPSESLPVLLEAYRLLGRPAPPAIPLEAANLSPMAQSFWRESRRVRNDKIKQALGVQLRYPSYREGLRAIARELGLEHHHHHH	not soluble
